Two molecules from doi:10.1101/008359, “TACC3–ch-TOG track the growing tips of microtubules independently of clathrin and Aurora-A phosphorylation” (bioRxiv, 2014) can be followed below.

Assay [1] has as its target T1, His-NusA-ch-TOG(1517-1957) wild type (UniProt Q14008 1517-1957).
T1 construct: held on Ni Sepharose beads by the His tag; source: recombinant, expressed and purified as stated in earlier work [11]; not shown: His, N-terminal, kept; NusA, N-terminal, kept
In words: pull-down; His-NusA-ch-TOG(1517-1957) wild type and mutant proteins bound to Ni Sepharose beads, then incubated with TACC3(629-838); SDS-PAGE and Western blot with anti-TACC3 TACC domain antibody; His-NusA as tag binding control. The conditions noted are these: both partners purified.

A further assay concerns the target T2, ch-TOG(1517-1957) (UniProt Q14008 1517-1957).
T2 construct: source: recombinant, expressed and purified as stated in earlier work [11]
Kind of assay: pull-down; His-NusA-TACC3(629-838) bound to Ni Sepharose beads and incubated with ch-TOG proteins; His-NusA as tag binding control. The conditions noted are these: both partners purified.

T2 sequence (Q14008 1517-1957): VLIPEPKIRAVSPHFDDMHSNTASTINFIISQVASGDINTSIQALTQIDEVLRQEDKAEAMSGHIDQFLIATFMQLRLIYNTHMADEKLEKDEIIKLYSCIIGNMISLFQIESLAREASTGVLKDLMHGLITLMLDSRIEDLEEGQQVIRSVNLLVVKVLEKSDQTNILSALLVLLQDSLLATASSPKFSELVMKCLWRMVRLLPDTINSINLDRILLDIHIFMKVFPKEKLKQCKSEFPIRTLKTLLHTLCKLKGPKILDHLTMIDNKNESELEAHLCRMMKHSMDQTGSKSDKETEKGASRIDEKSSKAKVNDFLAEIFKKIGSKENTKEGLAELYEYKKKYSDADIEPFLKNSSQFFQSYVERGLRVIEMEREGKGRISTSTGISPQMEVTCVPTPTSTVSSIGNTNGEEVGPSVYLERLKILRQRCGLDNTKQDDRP
T1 sequence (Q14008 1517-1957): as above

B1: TACC3(629-838) (domain or fragment)
chain: not shown
notes: source: recombinant, expressed and purified as stated in earlier work [11]
As to B1, the binding result in assay [1] is recorded as “binds”.

B2: His-NusA-TACC3(629-838) (domain or fragment)
chain: not shown
notes: Held on Ni Sepharose beads by the His tag; source: recombinant, expressed and purified as stated in earlier work [11]; not shown: His, N-terminal, kept; NusA, N-terminal, kept
For the molecule B2, the binding result with ch-TOG(1517-1957) is recorded as “binds”.
